# In publication PMC6303401, “A NAC transcription factor, NOR-like1, is a new positive regulator of tomato fruit ripening”:
# Target: NOR-like1 (Solanum lycopersicum (cv. AC), UniProt K4CH25 1-329)
# Test: EMSA; EMSA kit (Thermo Fisher), manufacturer's instructions; buffer, salt, pH and temperature not stated
# Details: protein: recombinant; tags: GST; chain copies: 2; label: biotin; blunt
# NOR-like1, sequence (K4CH25 entry or part of it): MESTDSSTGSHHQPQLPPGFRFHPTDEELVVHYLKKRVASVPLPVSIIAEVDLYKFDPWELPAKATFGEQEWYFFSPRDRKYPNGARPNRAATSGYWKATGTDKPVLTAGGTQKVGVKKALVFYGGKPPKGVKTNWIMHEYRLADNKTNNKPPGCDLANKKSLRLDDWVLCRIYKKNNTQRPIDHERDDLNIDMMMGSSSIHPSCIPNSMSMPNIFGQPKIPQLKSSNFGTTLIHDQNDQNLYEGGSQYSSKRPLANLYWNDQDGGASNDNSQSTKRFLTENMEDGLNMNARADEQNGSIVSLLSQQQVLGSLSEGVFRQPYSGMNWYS
row,Binder,binding result
1,SlPG2a wild (dsDNA) DNA 1: TATTTTAAAAAATACACTTAAAAGCGTGACTAAATATAAATTGTTGCTCA DNA 2: TGAGCAACAATTTATATTTAGTCACGCTTTTAAGTGTATTTTTTAAAATA,binds
2,SlCEL2 wild (dsDNA) DNA 1: ATCCAATAGCATCCCACCACGTGTCGTAACAATATTGGTTTAACCCCAGG DNA 2: CCTGGGGTTAAACCAATATTGTTACGACACGTGGTGGGATGCTATTGGAT,binds
3,SlGgpps2 wild (dsDNA) DNA 1: TACGTTTAGGATAGGACTTCATTACGTGTCAAGGACAAAAATAAACCTAT DNA 2: ATAGGTTTATTTTTGTCCTTGACACGTAATGAAGTCCTATCCTAAACGTA,binds
4,SlSGR1 wild (dsDNA) DNA 1: TAAGCAGTTATGCGTGTGCTGAAGTTGTTATTTCAAACGTGAAAAGGAAA DNA 2: TTTCCTTTTCACGTTTGAAATAACAACTTCAGCACACGCATAACTGCTTA,binds
5,SlEXP1 wild (dsDNA) DNA 1: CTGAAATTTTAGCTAATTTTAACACGTATTCAATTTTGTATGATTGAATG DNA 2: CATTCAATCATACAAAATTGAATACGTGTTAAAATTAGCTAAAATTTCAG,binds
6,SlACS4 wild (dsDNA) DNA 1: GTTTTAACTTTTTAAATATTTTGACGTAAGTTTTTTGTTTTCCCCCAAAA DNA 2: TTTTGGGGGAAAACAAAAAACTTACGTCAAAATATTTAAAAAGTTAAAAC,binds
7,SlACS2 wild (dsDNA) DNA 1: AATAAATTCTTTTTGACAGGGTGGCGTAAAAATAATTTTATTTTAAAATA DNA 2: TATTTTAAAATAAAATTATTTTTACGCCACCCTGTCAAAAAGAATTTATT,binds
8,SlPL wild (dsDNA) DNA 1: TATCAATAACAGATAGTAATTTTACGTAATGATATTGAACGATGTATATA DNA 2: TATATACATCGTTCAATATCATTACGTAAAATTACTATCTGTTATTGATA,binds
